The values that follow come from article PMC11286295, “Aspartate aminotransferase of Rhizobium leguminosarum has extended substrate specificity and metabolizes aspartate to enable N2 fixation in pea nodules” (Microbiology, 2024).

Assay in all cases: purified protein
Substrate in data set [1]: O=C(O)CC(=O)C(=O)O
Particulars: GOT reaction, co-substrate glutamate, 0.05 mM PLP, 100 mM NH4Cl, 100 mM phosphate pH 7.5, 30 °C.

Substrate in data set [2]: N[C@@H](CC(=O)O)C(=O)O
Particulars: AKT reaction, co-substrate α-ketoglutarate, 0.05 mM PLP, 100 mM phosphate pH 7.5, 30 °C.

Substrate in data set [3]: N[C@@H](CCC(=O)O)C(=O)O
Format: biochemical, Rhizobium leguminosarum. Particulars: GOT reaction, co-substrate oxaloacetate, 0.05 mM PLP, 100 mM NH4Cl, 100 mM phosphate pH 7.5, 30 °C.

Substrate in data set [4]: O=C(O)CCC(=O)C(=O)O
Format: biochemical, Rhizobium leguminosarum. Particulars: AKT reaction, co-substrate aspartate, 0.05 mM PLP, 100 mM phosphate pH 7.5, 30 °C.

Substrate in data set [5]: CC(=O)C(=O)O
Format: biochemical, Rhizobium leguminosarum. Particulars: APT reaction, co-substrate aspartate, 0.05 mM PLP, 100 mM phosphate pH 7.5, 30 °C.

B1: AatA (Rhizobium leguminosarum bv. phaseoli) (protein)
chain: MAFLADALSRVKPSATIAVSQKARELKAKGRDVIGLGAGEPDFDTPDNIKKAAIDAINRGETKYTPVSGIPELRKAIAAKFKRENGLDYSWEQTIVGTGGKQILFNAFMATLNPGDEVSIPAPYWVSYPEMVALCGGTRFFVSATQEHNFKLQAADLEKAITPKTKWFIFNSPSNPTGAAYTHDELKALTDVLMKNPQVWVLTDDMYEHLTYGDFKFVTPVEVEPQLYDRTLTMNGVSKAYAMTGWRIGYAAGPIQLIKAMDMIQGQQTSGATSIAQWAAVEALNGTQDFIPENKKIFEGRRDLVVSMLNQAKGIVCPVPEGAFYVYPSCKGLIGKTAPSGKVIETDEDFVSELLESEGVAVVHGSAFGLGPNFRISYATSEEQLEEACRRIQRFCGACK
notes: recombinant from A34 gDNA in pET101/D-TOPO (pRU1152; vector with V5-tag and 6xHis), E. coli BL21 Star (DE3), His-Trap purified (histidine elution); expected homodimer; glycine at position 266
One may read the Km as the concentration of substrate that gives half-maximal velocity. A word on the kcat: it is the number of substrate molecules converted per active site and unit of time at saturation. Consider B1, for which the Km in data set [1] is 180 ± 30 µM; in data set [2], 1740 ± 320 µM; in data set [3], 4430 ± 520 µM; in data set [4] it was 320 ± 20 µM; in data set [5], 17000 ± 2000 µM. For the same protein, the kcat amounted to 168.08 ± 6.55 s⁻¹ in data set [1]; 125.88 ± 5.09 s⁻¹ in data set [2]; 163.71 ± 3.64 s⁻¹ in data set [3]; 130.97 ± 2.18 s⁻¹ in data set [4]; 98.96 ± 4.37 s⁻¹ in data set [5].
